{"source": "paper PMC4325844", "about": "(Molecular Biology of the Cell, 2015)", "molecular_target": "GST–PAR3-2N (UniProt Q9Z340 252-697)", "sequence (Q9Z340 252-697)": "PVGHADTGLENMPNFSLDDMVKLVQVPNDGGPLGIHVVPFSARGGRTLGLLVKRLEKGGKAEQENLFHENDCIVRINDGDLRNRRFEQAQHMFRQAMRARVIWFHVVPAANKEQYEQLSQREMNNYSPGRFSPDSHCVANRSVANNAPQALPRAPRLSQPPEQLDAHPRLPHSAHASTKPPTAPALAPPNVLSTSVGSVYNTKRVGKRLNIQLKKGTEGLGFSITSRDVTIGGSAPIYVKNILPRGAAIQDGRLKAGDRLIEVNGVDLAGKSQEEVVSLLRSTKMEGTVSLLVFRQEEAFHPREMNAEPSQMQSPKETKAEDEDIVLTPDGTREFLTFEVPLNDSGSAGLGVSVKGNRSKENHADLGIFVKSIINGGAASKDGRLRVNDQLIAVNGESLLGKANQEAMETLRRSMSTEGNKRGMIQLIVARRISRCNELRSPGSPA", "experiment": "pull-down"}
{"binder": "MBP–CLASP2-N2 (domain or fragment, UniProt O75122 310-670, looked up) SSGSVASLPQSDRSSSSSQESLNRPFSSKWSTANPSTVAGRVSAGSSKASSLPGSLQRSRSDIDVNAAAGAKAHHAAGQSVRSGRLGAGALNAGSYASLEDTSDKLDGTASEDGRVRAKLSAPLAGMGNAKADSRGRSRTKMVSQSQPGSRSGSPGRVLTTTALSTVSSGVQRVLVNSASAQKRSKIPRSQGCSREASPSRLSVARSSRIPRPSVSQGCSREASRESSRDTSPVRSFQPLASRHHSRSTGALYAPEVYGASGPGYGISQSSRLSSSVSAMRVLNTGSDVEEAVADALKKPARRRYESYGMHSDDDANSDASSACSERSYSSRNGSIPTYMRQTEDVAEVLNRCASSNWSER", "values": [{"measurement": "Kd", "result": "~6", "unit": "nM"}]}
